The target of one experiment is T1, SLC38A2 (human, UniProt Q96QD8 1-506).
T1 construct: N-terminally SII-HA tagged bait
T1 sequence (looked up): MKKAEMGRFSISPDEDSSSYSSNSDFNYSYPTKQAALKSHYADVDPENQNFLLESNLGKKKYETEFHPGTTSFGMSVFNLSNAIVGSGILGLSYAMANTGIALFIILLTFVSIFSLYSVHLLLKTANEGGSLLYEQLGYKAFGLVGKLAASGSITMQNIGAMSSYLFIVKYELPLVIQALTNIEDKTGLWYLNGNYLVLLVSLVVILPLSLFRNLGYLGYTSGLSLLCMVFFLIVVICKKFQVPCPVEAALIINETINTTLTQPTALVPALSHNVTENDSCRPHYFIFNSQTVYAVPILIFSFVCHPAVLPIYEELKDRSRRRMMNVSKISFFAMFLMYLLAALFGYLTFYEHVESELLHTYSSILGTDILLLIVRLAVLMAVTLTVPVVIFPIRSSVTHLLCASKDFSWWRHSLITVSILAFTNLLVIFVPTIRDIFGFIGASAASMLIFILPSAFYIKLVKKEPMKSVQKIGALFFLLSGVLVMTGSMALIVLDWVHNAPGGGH
Description: TAP-LC-MS/MS, SII-HA-tagged bait, HEK293 Flp-In TREx cells. As for the experimental part:
(§1) Tandem affinity STREP-HA purifications were performed as previously described³. In brief, cells were stimulated with doxycycline/tetracycline for 24 h to induce expression of SII-HA-tagged bait proteins. Induction of SII-HA-LAMTOR 3 was combined with 9 h starvation in serum free medium. Protein complexes were isolated by TAP using streptavidin agarose followed by elution with biotin, and a second purification step using HA-agarose beads. Proteins were eluted with 100 mM formic acid, neutralized with triethylammonium bicarbonate (TEAB) and digested with trypsin, and the peptides were analysed by LC-MS/MS.

For a further experiment, the target named is T2, SLC38A1 (human, UniProt Q9H2H9 1-487).
T2 construct: N-terminally SII-HA tagged bait
T2 sequence (looked up): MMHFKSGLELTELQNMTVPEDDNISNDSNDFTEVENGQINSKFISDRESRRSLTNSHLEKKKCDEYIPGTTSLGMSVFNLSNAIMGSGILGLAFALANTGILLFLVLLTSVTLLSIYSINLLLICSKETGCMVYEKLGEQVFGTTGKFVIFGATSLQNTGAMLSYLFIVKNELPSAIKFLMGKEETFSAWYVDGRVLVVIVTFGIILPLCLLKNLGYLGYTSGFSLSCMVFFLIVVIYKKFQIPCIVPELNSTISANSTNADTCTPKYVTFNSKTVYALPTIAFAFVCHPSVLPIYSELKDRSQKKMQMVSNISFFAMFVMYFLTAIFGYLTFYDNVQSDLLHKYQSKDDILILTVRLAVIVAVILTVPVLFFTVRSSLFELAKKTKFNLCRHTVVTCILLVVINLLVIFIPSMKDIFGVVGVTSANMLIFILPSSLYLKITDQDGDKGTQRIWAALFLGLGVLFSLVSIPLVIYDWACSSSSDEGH
Described as above. As for the experimental part: as §1

B1: RAGD (enzyme, human, UniProt Q9NQL2 1-400, looked up)
chain: MSQVLGKPQPQDEDDAEEEEEEDELVGLADYGDGPDSSDADPDSGTEEGVLDFSDPFSTEVKPRILLMGLRRSGKSSIQKVVFHKMSPNETLFLESTNKICREDVSNSSFVNFQIWDFPGQIDFFDPTFDYEMIFRGTGALIFVIDSQDDYMEALARLHLTVTRAYKVNTDINFEVFIHKVDGLSDDHKIETQRDIHQRANDDLADAGLEKIHLSFYLTSIYDHSIFEAFSKVVQKLIPQLPTLENLLNIFISNSGIEKAFLFDVVSKIYIATDSTPVDMQTYELCCDMIDVVIDISCIYGLKEDGAGTPYDKESTAIIKLNNTTVLYLKEVTKFLALVCFVREESFERKGLIDYNFHCFRKAIHEVFEVRMKVVKSRKVQNRLQKKKRATPNGTPRVLL
notes: Named in the results only as one of the four RAG GTPases; also called RAG GTPase D
Consider B1, for which the binding result with SLC38A2 and with SLC38A1 was “no binding” each time.
